In assay [1] the target is rat total IgG (Sigma-Aldrich) (rat). As to the kind of experiment: ELISA; rat total IgG coated on plate, 10 ng TGF-beta in PBS, 18 h 4 C, bound TGF-beta detected with TGF-beta ELISA kit. (ELISA stands for enzyme-linked immunosorbent assay.)
Assay [2] has the same target. Put plainly: ELISA; rat total IgG coated on plate, 10 ng TGF-beta in 10% glycerol in 0.1M Tris pH 7.4, 18 h 4 C, bound TGF-beta detected with TGF-beta ELISA kit.
The target is the same in assay [3]. Put plainly: ELISA; rat total IgG coated on plate, 10 ng TGF-beta in 0.1M Tris pH 7.4 (0 mM NaCl), 18 h 4 C, bound TGF-beta detected with TGF-beta ELISA kit.
Assay [4] shares this target. Put plainly: ELISA; rat total IgG coated on plate, 10 ng TGF-beta in 10% glycerol in PBS, 18 h 4 C, bound TGF-beta detected with TGF-beta ELISA kit.
Assay [5] concerns the target total mouse IgG (Sigma-Aldrich) (mouse). Put plainly: 20 ng TGF-beta and 1 ug soluble total mouse IgG, 5 min in PBS at room temperature; Sepharose G-50 spin column; TGF-beta ELISA of eluate.
Assay [6] shares this target. Put plainly: 20 ng TGF-beta and 1 ug soluble total mouse IgG, 5 min in 0.5x PBS pH 11 at room temperature; Sepharose G-50 spin column; TGF-beta ELISA of eluate.
The target is the same in assay [7]. As to the kind of experiment: 20 ng TGF-beta and 1 ug soluble total mouse IgG, 5 min in PBS at 42 C; Sepharose G-50 spin column; TGF-beta ELISA of eluate.
The target in assay [8] is TGF-beta receptors on mink lung epithelial cells (ATCC CCL-64) (mink). Put plainly: cell-based or functional assay.
For assay [9], the target named is Mouse IgG2a (eBioscience) (mouse). As to the kind of experiment: Sephadex G-50 gel filtration of the TGF-beta/IgG mixture; fractions assayed by TGF-beta ELISA. A general note: In gel filtration, larger molecules generally elute earlier.
Assay [10] concerns the target Mouse IgG1 (eBioscience) (mouse). The description is as above.

For “TGF-beta (Leinco Technologies, St. Louis, Mo.) (from UniProt P01137 279-390) (ligand)”, the Net Absorbance (450) (absorbance at 450) in [1] was found to be 0.18; in [2] it was 0.7; in assay [3], 1.02; in [4], 0.
As for “Transforming growth factor-beta 1 (Peprotech) (from UniProt P01137 279-390) (ligand)”, the Net Absorbance (450) (absorbance at 450) in assay [5] came to 0.193. Also, the Net Absorbance (450) (absorbance at 450) in assay [6] turned out to be 0.558. Besides, in assay [7], the Net Absorbance (450) (absorbance at 450) came out at 0.117. For the same substance, in assay [8], the Cell Viability (OD450/Control OD450) at 0.25 pg/mL acid-dissociated (Treated) AcTigg (OD450/Control OD450) stood at 0.621, the Cell Viability (OD450/Control OD450) at 2.5 pg/mL acid-dissociated (Treated) AcTigg (OD450/Control OD450) amounted to 0.645, the Cell Viability (OD450/Control OD450) at 25 pg/mL acid-dissociated (Treated) AcTigg (OD450/Control OD450) is 0.651 and the Cell Viability (OD450/Control OD450) at 250 pg/mL acid-dissociated (Treated) AcTigg (OD450/Control OD450) was 0.651. Besides, the Cell Viability (OD450/Control OD450) at 2500 pg/mL acid-dissociated (Treated) AcTigg (OD450/Control OD450) in [8] was determined as 0.616. Moreover, the percent of TGF-beta eluting in the IgG-bound fraction in assay [9] was in the range of 40 to 50%. For the same substance, in [10], the percent of TGF-beta eluting in the IgG-bound fraction fell in the range of 40 to 50%.
“mouse AcTigg (TGF-beta 1 non-covalently bound to mouse IgG1), PEG-precipitated, intact (from UniProt P01137 279-390)”: in assay [8], the Cell Viability (OD450/Control OD450) at 0.25 pg/mL AcTigg (OD450/Control OD450) turned out to be 0.965, the Cell Viability (OD450/Control OD450) at 2.5 pg/mL AcTigg (OD450/Control OD450) was 0.924, the Cell Viability (OD450/Control OD450) at 25 pg/mL AcTigg (OD450/Control OD450) stood at 0.897 and the Cell Viability (OD450/Control OD450) at 250 pg/mL AcTigg (OD450/Control OD450) came out at 0.817. In assay [8], this substance had a Cell Viability (OD450/Control OD450) at 2500 pg/mL AcTigg (OD450/Control OD450) of 0.678.

For the origin of these results see US20110305716A1.
